1 molecule from patent US20050143285A1 (published 2005) can be followed below.

The target of experiment [1] is T1, α-bungarotoxin (UniProt P60615 22-95).
T1 sequence: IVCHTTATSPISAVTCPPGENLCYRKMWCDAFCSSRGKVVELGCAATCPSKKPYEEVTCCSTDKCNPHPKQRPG
Briefly: stopped-flow spectrofluorimetry.

In experiment [2] the target is T1, α-bungarotoxin.
The target in experiment [3] is T1, α-bungarotoxin. The experiment is described as follows: stopped-flow spectrofluorimetry, excitation 280 nm, emission above 305 nm.

In general, koff refers to the rate constant with which the complex falls apart. High values mean a short-lived complex, low ones a long-lived complex. The Kd is the free concentration of one partner at which half of the binding sites on the other are occupied at equilibrium, for simple one-to-one binding. A high value points to a looser complex. One may read the kon as the rate constant with which the complex forms.

B1: Aplysia californica acetylcholine binding protein (AChBP) (other)
chain: HSQANLMRLKSDLFNRSPMYPGPTKDDPLTVTLGFTLQDIVKADSSTNEVDLVYYEQQRWKLNSLMWDPNEYGNITDFRTSAADIWTPDITAYSSTRPVQVLSPQIAVVTHDGSVMFIPAQRLSFMCDPTGVDSEEGATCAVKFGSWVYSGFEIDLKTDTDQVDLSSYYASSKYEILSATQTRQVQHYSCCPEPYIDVNLVVKFRERRAGNGFFRNLFD
In turn, B1 came in with a dissociation rate constant (koff) in the experiment with α-bungarotoxin [1] of 0.32 s⁻¹. The dissociation constant (Kd) with α-bungarotoxin [2] stood at 250 nM. In the experiment with α-bungarotoxin [3], this molecule had a kon of 1e+06 M⁻¹ s⁻¹.
